These are literature values, as cited in paper PMC4355281.

What is called Kd is the concentration at which binding is half-saturated.

The series deals with PKA RII (UniProt P13861).
Chain of PKA RII (P13861 2-404): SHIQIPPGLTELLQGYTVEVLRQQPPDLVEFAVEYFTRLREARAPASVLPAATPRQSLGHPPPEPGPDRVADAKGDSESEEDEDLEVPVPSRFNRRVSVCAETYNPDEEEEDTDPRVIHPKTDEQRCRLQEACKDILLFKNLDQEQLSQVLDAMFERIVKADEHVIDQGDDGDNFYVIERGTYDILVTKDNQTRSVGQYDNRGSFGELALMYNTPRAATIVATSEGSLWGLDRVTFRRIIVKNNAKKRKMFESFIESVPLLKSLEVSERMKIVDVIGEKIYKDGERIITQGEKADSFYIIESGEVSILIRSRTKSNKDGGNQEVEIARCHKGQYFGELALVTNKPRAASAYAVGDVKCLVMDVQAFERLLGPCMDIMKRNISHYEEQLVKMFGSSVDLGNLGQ

Chain of mAKAPβ (Q9WVC7 245-2314): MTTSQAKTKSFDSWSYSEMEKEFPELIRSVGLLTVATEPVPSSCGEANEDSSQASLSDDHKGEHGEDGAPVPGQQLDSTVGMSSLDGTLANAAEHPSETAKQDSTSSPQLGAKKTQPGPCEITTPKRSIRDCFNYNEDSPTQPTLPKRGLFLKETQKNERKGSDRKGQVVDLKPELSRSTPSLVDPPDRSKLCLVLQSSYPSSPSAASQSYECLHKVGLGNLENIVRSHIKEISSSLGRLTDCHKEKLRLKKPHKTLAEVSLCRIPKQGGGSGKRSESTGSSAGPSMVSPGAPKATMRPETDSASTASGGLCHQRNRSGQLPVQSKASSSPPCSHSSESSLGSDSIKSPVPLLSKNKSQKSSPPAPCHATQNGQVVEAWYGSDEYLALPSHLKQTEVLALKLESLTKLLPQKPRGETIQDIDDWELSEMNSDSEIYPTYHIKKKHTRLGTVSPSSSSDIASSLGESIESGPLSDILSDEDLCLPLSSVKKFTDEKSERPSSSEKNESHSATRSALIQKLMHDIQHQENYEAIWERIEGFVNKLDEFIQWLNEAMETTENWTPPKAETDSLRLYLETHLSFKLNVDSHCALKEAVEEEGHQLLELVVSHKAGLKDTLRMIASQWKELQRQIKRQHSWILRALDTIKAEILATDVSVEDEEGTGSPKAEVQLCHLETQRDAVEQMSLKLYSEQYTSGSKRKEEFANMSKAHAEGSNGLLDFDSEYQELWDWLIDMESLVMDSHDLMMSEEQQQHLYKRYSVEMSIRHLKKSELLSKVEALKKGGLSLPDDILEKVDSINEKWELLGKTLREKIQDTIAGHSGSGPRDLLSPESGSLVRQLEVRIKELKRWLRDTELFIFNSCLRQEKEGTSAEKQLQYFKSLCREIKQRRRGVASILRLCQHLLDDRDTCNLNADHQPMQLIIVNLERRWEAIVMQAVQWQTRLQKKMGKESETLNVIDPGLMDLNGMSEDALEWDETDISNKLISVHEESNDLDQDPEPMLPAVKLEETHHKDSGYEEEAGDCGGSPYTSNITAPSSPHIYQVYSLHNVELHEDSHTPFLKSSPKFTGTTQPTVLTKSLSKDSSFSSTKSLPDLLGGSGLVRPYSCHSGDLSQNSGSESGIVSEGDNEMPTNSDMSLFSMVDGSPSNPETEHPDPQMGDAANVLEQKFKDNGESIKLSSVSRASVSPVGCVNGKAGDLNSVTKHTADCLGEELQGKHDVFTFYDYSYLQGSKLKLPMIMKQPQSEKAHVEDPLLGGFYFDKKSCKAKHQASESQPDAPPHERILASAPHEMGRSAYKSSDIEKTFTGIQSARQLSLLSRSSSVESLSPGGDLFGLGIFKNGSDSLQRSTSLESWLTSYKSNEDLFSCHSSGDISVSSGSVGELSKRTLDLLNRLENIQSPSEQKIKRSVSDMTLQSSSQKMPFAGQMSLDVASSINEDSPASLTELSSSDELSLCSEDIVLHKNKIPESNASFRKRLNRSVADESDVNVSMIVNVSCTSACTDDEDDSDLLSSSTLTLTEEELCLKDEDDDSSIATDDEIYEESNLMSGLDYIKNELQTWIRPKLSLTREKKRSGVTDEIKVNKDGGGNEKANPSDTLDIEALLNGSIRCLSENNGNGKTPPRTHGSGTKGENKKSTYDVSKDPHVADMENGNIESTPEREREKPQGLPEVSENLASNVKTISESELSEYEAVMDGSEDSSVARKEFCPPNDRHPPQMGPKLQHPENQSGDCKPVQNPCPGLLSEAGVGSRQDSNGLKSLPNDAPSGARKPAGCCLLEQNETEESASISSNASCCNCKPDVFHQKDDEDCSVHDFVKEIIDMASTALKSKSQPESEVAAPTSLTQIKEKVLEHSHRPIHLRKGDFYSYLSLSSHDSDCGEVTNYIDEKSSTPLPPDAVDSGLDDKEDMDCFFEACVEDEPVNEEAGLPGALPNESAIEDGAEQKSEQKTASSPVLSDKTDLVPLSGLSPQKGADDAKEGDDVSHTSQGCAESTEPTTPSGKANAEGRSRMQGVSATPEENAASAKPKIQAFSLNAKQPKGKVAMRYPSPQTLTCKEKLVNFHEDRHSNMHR

Take mAKAPβ (from UniProt Q9WVC7): the Kd was 119 nM.
